According to paper PMC2888197, “B-lymphocyte stimulator/a proliferation-inducing ligand heterotrimers are elevated in the sera of patients with autoimmune disease and are neutralized by atacicept and B-cell maturation antigen-immunoglobulin” (Arthritis Research & Therapy, 2010):

B1: Flag-zippered (zz) 12.6 form of APRIL (amino acids 110-250) (domain or fragment, human, UniProt O75888 110-250, looked up)
chain: KQKKQHSVLHLVPINATSKDDSDVTEVMWQPALRRGRGLQAQGYGVRIQDAGVYLLYSQVLFQDVTFTMGQVVSREGQGRQETLFRCIRSMPSHPDRAYNSCYSAGVFHLHQGDILSVIIPRARAKLNLSPHGTFLGFVKL
notes: human APRIL amino acids 110-250, downstream of the otPA leader, Flag and the zz12.6 trimerization domain; The APRIL chain of the heterotrimer m3; the zipper itself may help to hold the chains together; also called Flag-zz12.6 APRIL; APRIL NF zz12.6; source: CHO DXB11, co-expressed with Hisx6-zz12.6 BLyS, purified from conditioned media (Ni-NTA, heparin, SEC); not shown: Flag, N-terminal, kept; …
B2: a proliferation-inducing ligand (APRIL) homotrimer, recombinant (ligand, human, UniProt O75888 110-250, looked up)
chain: B1 chain
notes: APRIL, recombinant soluble homotrimer; Six lots were used for SPR; also called homotrimeric APRIL
B3: B-cell maturation antigen (BCMA)-immunoglobulin (Ig) (Fc fusion, UniProt Q02223 1-54, looked up)
chain: MLQMAGQCSQNEYFDSLLHACIPCQLRCSSNTPPLTCQRYCNASVTNSVKGTNA
notes: BCMA, soluble receptor-Fc fusion protein; Construct not described in the main text; Additional file 1 may describe it; also called BCMA-Ig
B4: atacicept (Fc fusion, human, UniProt O14836 1-165, looked up)
chain: MSGLGRSRRGGRSRVDQEERFPQGLWTGVAMRSCPEEQYWDPLLGTCMSCKTICNHQSQRTCAAFCRSLSCRKEQGKFYDHLLRDCISCASICGQHPKQCAYFCENKLRSPVNLPPELRRQRSGEVENNSDNSGRYQGLEHRGSEASPALPGLKLSADQVALVYS
notes: also called TACI-Ig; soluble receptor fusion protein of TACI

Assays:
Conditions in all cases: both partners purified
[1] = target: T1, Hisx6-zz12.6 form of BLyS (amino acids 141-285) (human, UniProt Q9Y275 141-285); assay: SEC-MALS; heterotrimer co-expressed in CHO, purified by Ni-NTA (His on BLyS), heparin and SEC; ratio of the chains by Western blot (anti-His, anti-Flag), confirmed by SEC-MALS
T1 construct: The BLyS chain of the heterotrimer m3; the zipper itself may help to hold the chains together; also called BLyS NH6 zz12.6; His-zz12.6 BLyS; source: CHO DXB11, co-expressed with Flag-zz12.6 APRIL, purified from conditioned media (Ni-NTA, heparin, SEC); not shown: His6, N-terminal, kept; zz12.6 trimerization domain, N-terminal, kept

[2] = target: B4; assay: SPR; Biacore 3000; atacicept, BCMA-Ig and BAFF-R-Ig covalently immobilized on a CM4 chip; ligands ~0.05 to 20 nMol/L flowed at 50 ul/min, 25 C; 20 mmol/L sodium phosphate, 150 mmol/L NaCl, 0.05% polysorbate 20, pH 7.5; KD from ka and kd, global fit to a 1:1 model; stoichiometry not determined
[3] = target: B2; assay: as above
[4] = target: T2, recombinant BLyS/APRIL heterotrimer (Hisx6-zz12.6 BLyS with Flag-zz12.6 APRIL), predominantly 2 APRIL to 1 … (human, UniProt O75888 110-250; Q9Y275 141-285); assay: as above
T2 construct: human APRIL amino acids 110-250, downstream of the otPA leader, Flag and the proprietary zz12.6 trimerization domain; The preparation holds a small fraction of 1 APRIL to 2 BLyS (AB2) heterotrimers; also called heterotrimers; HT; not shown: Flag, N-terminal, kept; zz12.6 trimerization domain, N-terminal, kept; His6, N-terminal, kept; copies: 2 + 1
T2 sequence (Q9Y275 141-285, chain 2 of 2, one chain of several): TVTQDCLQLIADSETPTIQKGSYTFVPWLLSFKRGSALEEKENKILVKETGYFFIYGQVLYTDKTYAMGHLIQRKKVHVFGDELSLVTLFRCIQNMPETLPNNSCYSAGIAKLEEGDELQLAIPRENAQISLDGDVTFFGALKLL

T1 sequence (Q9Y275 141-285): as the sequence (Q9Y275 141-285, chain 2 of 2, one chain of several) above

Binder: B1
stoichiometry N [1]: 2 APRIL per BLyS

Binder: B2
Kd [2]: 0.1 to 0.2 nM

Binder: B3
Kd [3]: 0.0001 to 0.0003 nM
Kd [4]: 0.01 nM

Binder: B4
Kd [4]: 0.4 nM
